Results: publication PMC7721647, “The Human RNA Helicase DDX21 Presents a Dimerization Interface Necessary for Helicase Activity” (iScience, 2020)

How the values were obtained:
Assay in all cases: fluorescence polarization; 50 mM KCl; FP: 50 mM Tris pH 7.5, 50 mM KCl, 5 mM MgCl2, no ATP; Hill-slope fit; temperature not given in the material
DDX21Core-DD = biological target: T1, DDX21Core-DD (human, UniProt Q9NR30 186-620); details: protein: recombinant; tags: C-terminal His6, uncleavable; chain copies: 2; label: 5'-FAM; G4
T1 sequence: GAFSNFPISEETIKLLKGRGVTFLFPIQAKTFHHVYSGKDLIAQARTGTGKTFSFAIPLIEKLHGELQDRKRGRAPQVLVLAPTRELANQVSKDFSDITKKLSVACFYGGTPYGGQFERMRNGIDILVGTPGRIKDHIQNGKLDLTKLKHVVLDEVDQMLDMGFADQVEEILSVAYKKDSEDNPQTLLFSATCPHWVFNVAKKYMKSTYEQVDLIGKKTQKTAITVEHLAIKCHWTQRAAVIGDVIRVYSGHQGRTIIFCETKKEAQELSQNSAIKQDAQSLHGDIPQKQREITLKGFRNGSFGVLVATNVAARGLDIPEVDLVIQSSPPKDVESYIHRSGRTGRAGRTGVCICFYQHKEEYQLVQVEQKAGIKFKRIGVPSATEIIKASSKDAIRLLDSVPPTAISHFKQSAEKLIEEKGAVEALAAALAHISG

DDX21Fl monomer = biological target: T2, DDX21Fl monomer (human, UniProt Q9NR30 1-783, L611R;A612R;A613R;A614R;L615R;A616R); details: protein: recombinant; label: 5'-FAM; G4
T2 sequence: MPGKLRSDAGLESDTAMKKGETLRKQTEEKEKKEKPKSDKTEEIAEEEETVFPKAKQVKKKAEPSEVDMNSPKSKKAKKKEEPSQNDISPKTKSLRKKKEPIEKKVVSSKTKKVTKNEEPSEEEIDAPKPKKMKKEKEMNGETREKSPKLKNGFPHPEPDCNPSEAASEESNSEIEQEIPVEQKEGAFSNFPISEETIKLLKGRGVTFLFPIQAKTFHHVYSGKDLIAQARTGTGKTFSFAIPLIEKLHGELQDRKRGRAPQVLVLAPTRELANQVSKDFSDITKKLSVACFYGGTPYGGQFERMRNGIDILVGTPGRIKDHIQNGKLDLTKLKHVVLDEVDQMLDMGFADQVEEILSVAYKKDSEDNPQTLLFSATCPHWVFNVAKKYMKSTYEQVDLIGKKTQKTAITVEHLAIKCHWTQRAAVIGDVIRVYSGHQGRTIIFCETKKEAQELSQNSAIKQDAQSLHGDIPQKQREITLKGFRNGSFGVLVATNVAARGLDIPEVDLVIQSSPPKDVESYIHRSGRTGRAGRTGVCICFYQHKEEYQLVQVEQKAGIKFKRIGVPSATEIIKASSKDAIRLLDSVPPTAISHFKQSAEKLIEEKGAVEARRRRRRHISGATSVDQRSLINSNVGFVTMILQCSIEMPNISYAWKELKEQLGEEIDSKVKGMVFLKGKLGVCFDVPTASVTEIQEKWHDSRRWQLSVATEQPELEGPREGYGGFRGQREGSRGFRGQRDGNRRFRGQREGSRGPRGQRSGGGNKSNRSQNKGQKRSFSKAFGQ

DDX21Core = biological target: T3, DDX21Core (human, UniProt Q9NR30 186-564); details: protein: recombinant; label: 5'-FAM; G4
T3 sequence: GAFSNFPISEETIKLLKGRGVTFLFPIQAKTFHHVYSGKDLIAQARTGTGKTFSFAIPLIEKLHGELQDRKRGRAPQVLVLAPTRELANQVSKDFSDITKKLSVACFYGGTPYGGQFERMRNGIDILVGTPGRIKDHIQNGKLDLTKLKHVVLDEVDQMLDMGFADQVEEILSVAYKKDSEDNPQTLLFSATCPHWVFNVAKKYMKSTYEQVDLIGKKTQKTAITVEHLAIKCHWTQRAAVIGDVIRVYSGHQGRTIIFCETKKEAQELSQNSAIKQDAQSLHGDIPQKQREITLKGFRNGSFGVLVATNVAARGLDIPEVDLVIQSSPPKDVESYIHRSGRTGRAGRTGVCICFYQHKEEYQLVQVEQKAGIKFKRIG

DDX21ΔN monomer = biological target: T4, DDX21ΔN monomer (human, UniProt Q9NR30 186-783, L611R;A612R;A613R;A614R;L615R;A616R); details: protein: recombinant; label: 5'-FAM; G4
T4 sequence: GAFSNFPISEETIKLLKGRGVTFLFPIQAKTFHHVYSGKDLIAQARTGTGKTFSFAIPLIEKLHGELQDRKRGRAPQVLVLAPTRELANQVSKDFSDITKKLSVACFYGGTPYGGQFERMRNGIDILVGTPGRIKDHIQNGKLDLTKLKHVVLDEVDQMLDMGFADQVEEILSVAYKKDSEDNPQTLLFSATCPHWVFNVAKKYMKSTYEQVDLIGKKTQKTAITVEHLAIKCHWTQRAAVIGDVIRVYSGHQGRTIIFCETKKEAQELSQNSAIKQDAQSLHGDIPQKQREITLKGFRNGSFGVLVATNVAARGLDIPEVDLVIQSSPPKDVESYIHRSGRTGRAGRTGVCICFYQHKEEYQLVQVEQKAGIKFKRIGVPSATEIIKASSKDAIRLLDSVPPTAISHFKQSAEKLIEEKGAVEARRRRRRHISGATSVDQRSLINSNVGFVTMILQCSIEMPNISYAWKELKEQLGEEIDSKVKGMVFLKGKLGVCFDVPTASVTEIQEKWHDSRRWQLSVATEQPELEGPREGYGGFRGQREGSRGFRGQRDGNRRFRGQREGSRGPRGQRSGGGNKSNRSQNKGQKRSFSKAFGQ

B1: Q2 RNA G-quadruplex (structured_RNA)
RNA: GUUGGGGCGGGCGUUGGGUUUGGGGGGACG
Kd (DDX21Core-DD): 23.1 ± 3.2 nM | Kd (DDX21Fl monomer): 9.8 ± 0.9 nM | Kd (DDX21Core): 62.5 ± 4.9 nM | Kd (DDX21ΔN monomer): 2.9 ± 0.3 nM
